Reference: paper PMC6614797

Experiments:
RNA polymerase (E. coli) = RNA polymerase (E. coli) (UniProt P0A7Z4); test: SEC
[1] = target: NusA-AR2^D443C labeled with fluorescein-5-maleimide (E. coli) (UniProt P0AFF6); test: fluorescence polarisation

Q: With “ribosomal protein S4 (from UniProt P0A7V8 1-206) (natural protein)” as the substance, how does the percent of S4 coeluted with the rrnG-TAC (RNA polymerase (E. coli)) read?
A: 25%

Q: “inositol monophosphatase SuhB (from UniProt P0ADG4 1-267) (natural protein)” was tested. Which Kd [1] did it give?
A: 83 µM

Q: And the percent of SuhB coeluted with the rrnG-TAC (RNA polymerase (E. coli))?
A: 20%
